Experimental data from paper doi:10.1101/2023.08.25.554718 (2023).
Where two headings read alike, the source gives them in different places.

Key:
[1] = target: T1, CX3CR1 nucleosome (human core histones, wild type) (human, UniProt P04908 1-124; O60814 1-124; P68431 1-136; P62805 1-103)
[2] = target: T1, CX3CR1 nucleosome (human core histones, …); experiment: with scFv

- Kd [1]: 1700 nM
- Kd [2]: 1500 nM
B1: MBP-DBDC/EBPα (protein)
chain: MHLQPGHPTPPPTPVPSPHAAPALGAAGLPGPGSALKGLAGAHPDLRTGGGGGGSGAGAGKAKKSVDKNSNEYRVRRERNNIAVRKSRDKAKQRNVETQQKVLELTSDNDRLRKRVEQLSRELDTLRGIFRQLPESSLVKAMGNCA
